Measured values: patent US7985736B2, “High throughput screen utilizing newly discovered intramolecular neuronal calcium channel interactions to discover new analgesics” (The John Hopkins University, priority 2004, dated 2011)
Ends that are not written are not given here.

Experiments:
[1] = target: T1, N-type (α1B) Ca2+ channels (Homo sapiens, UniProt Q00975); assay: Whole-cell G/Q analysis and prepulse facilitation of recombinant N-type channels coexpressed with peptide in HEK293 cells; assay type: cell-based; details: for Effect on G/Q slope (Gmax-Qmax relation), with Gβγ: peptide coexpressed with channels and Gβγ, Gmax after 100 mV prepulse
T1 construct: transferred by EcoRI and Bgl II sites into the full-length α1B construct; expressed in transfected cells; host or cells: HEK293
Description: FIG. 3A illustrates an approach for N-type channels without Gβγ coexpression. Exemplar currents activated quickly and were barely facilitated by strong prepulse depolarization (FIG. 3A, left). The slight residual prepulse facilitation reflects basal endogenous Gβγ activation. To estimate open probability, two intermediary parameters were specified. First, to gauge the number of channels in a cell (Nchannel), the channel gating current at the reversal potential for ionic current were isolated (FIG. 3A, middle left) (Jones et al., 1999). The area under this current yields the maximal gating charge Qmax, where Qmax=Nchannel×qmax, and qmax is the maximal gating charge per channel. Second, Gmax for a given cell, the maximal ionic current conductance determined as the slope of the peak current-voltage relation at depolarized potentials were determined (FIG. 3A, middle right, line). Here and throughout, current-voltage relations were determined after a 100 mV prepulse, which transiently relieves all G protein inhibition (Colecraft et al., 2000), thus eliminating these inhibitory effects in the estimate of Gmax. Accordingly, Gmax=Nchannel×Po,max×g, where Po,max is the maximal channel open probability at saturating de-polarization, and g is the conductance of a single open channel. In combination, then, a plot of Gmax versus Qmax for multiple cells ([…]) would describe a linear relation with slope equal to Po,max×g/qmax. Because g and qmax are unchanged by G protein modulation (Colecraft et al., 2001; Jones et al., 1997; Patil et al., 1996), this slope (G/Q=0.44±0.03 nS/fC) is proportional to Po,max . . . FIG. 3B documents the supporting results for N-type channels coexpressed with Gβγ. Gmax determined after prepulse de-polarization, when plotted against Qmax, specifies an identical slope to that without Gβγ (FIG. 3B, right, G/Q=0.43±0.04 nS/fC). […] Free NTB peptide with α1B channels. Initially, an NTB-CFP peptide was employed to visually confirm expression was coexpressed. […] By contrast, coexpressing channels with NTB-CFP and Gβγ produced remarkable effects (FIG. 3D). […] More telling were small ionic current amplitudes despite gating current magnitudes on par with controls (FIG. 3D, middle panels). Consequently, there was a significant ^w6-fold depression of the Gmax-Qmax plot (FIG. 3D, right). If NTB-CFP were simply chelating Gβγ (FIG. 2C), the G/Q slope would be unchanged from control. Instead, the suppression of G/Q indicates constitutive inhibition of channel opening.
Cells were transiently transfected and cultured in 10 cm plates (Brody et al., 1997). For 2+Ca^2+ channels, 8 μg was used of each of cDNAs of the desired a1, rat brain β2a (Perez-Reyes et al., 1992), and rat brain a^28 (Tomlinson et al., 1993) subunits; along with 2 μg T-antigen cDNA. N-type α1B, human origin (NM000718); L-type α1C, rabbit (Wei et al., 1991) (X15539). Gβγ coexpressed with 4 μg each of Gβ1 (Sugimoto et al., 1985) and Gγ2 (Gautam et al., 1990). For coexpression of N-terminal peptides, channel subunit cDNA reduced to 6 μg, while adding 14 μg peptide cDNA. For receptor experiments, 0.5 μg cDNA for m2R (below) applied with other cDNAs.
Whole-cell current records were made with Axopatch 200B (Axon Instruments, Calif.), 1-3 days posttransfection. Pipets, 1.5-3 MΩ before 60-75% series resistance compensation. Internal solution: 135 mM CsMeSO4, 5 mM CsCl, 10 mM EGTA, 10 mM HEPES, 1 mM MgCl2, and 4 mM MgATP. External solution: 150 mM TEAMeSO4, 10 mM HEPES, 2 mM CaCl2, and 1 mM MgCl2. During constitutive inhibition (or as noted for some chimeras), 20 mM BaCl2 was substituted for 2 mM CaCl2, and the resulting solution was diluted 1.08×. To compare across external solutions, a conversion factor of 3.18 was used. Currents and conductances with 20 mM Ba^2+ were thus scaled×1/3.18 to facilitate uniform comparison of values, as if all data had been collected with 2 mM Ca^2+. When applied, conversion is denoted by asterisk (*). […]

I-II loop of α1B (I-IIB) = target: T2, I-II loop of α1B (I-IIB) (Homo sapiens, UniProt Q00975); assay: Yeast two-hybrid assay, NT peptides versus I-IIB; assay type: binding; details: NT segment in pGBKT7, I-IIB in pGADT7
T2 construct: I-IIB(357-482)-pGADT7 & lam-pGBKT7; expressed in transfected cells; host or cells: AH109 yeast
Description: (§1) For yeast two-hybrid assays, a PCR fragment encoding one partner was fused, in-frame, with the GAL4 DNA binding domain (BD) in pGBKT7 (Clontech, Palo Alto, Calif.). The other element was fused, in-frame, with the GAL4 activation domain (AD) in pGADT7. For specific residues, see Supplemental Data (section 2). For electrophysiology, NT peptides lacking fluorophore tag were PCR amplified and cloned in pcDNA3. NTB peptide residues, 1-95; NTC residues, […]. Throughout, all segments subject to PCR or QuikChange were verified in their entirety by sequencing.
(§2) The Matchmaker GAL4 Two-Hybrid System 3 was used (Clontech, Palo Alto, Calif.). AH109 yeast were transformed with pGBKT7/pGADT7-based constructs (Yeastmaker Yeast Transformation System 2 kit, Clontech). After 5-8 days, growth on -leucine/-trytophan plates confirmed transformation of both plasmids. If partners interact, GAL4 BD/AD would complex, activating reporter genes (HIS3, ADE2, lacZ, and MEL1), for which assays are detailed in the Supplemental Data (section 2.1).
(§3) As a ‘medium’ stringency assay, expression of the lacZ gene was tested for encoding β-galactosidase, performing a filter lift with application of blue chromogenic substrate (Clontech-Laboratories, 1999). After the filter lift, original plates were re-grown for 2-3 days at 30° C. Filter paper was then used to replicate colonies onto a high stringency plate (-adenine/-histidine/-leucine/-trytophan). These plates were then incubated at 30° C. for 5-8 days. Survival on high stringency plates indicates production of both adenine and histidine, from transcription of the ADE2 and HIS3 genes, respectively. The percentage of colonies that turned blue in the filter lift assay, along with the percentage of colonies that survived on high stringency plates, was recorded for each pairing. Experiments were repeated at least three times. False positives were controlled for by testing each segment in pGBKT7 against empty pGADT7, and each segment in pGADT7 against lamin C in pGBKT7 (lamin C interacts with few proteins). Average sum of these backgrounds was subtracted from B to produce the net interaction parameter ΔB (FIG. 2).

I-IIB-YFP = target: T3, I-IIB-YFP (Homo sapiens, UniProt Q00975); assay: Live-cell FRET two-hybrid assay versus I-IIB-YFP in HEK293 cells; assay type: binding; details: for FRmax: 1:1 binding-model fit, CFP-tagged peptide versus I-IIB-YFP; for Kd,EFF / affinity for I-IIB (FRET), in words: relative dissociation constant, HEK293 cells
T3 construct: I-IIB residues, 357-482; expressed in transfected cells; host or cells: HEK293
Description: To confirm preferential interaction of NTB with I-IIB a live-cell FRET two-hybrid assay was used (Erickson et al., 2003), in which NTB, NTC, I-IIB, and I-IIC were fused to either CFP or YFP, and the resulting fusion constructs expressed pair-wise in mammalian HEK293 cells. Given a Forster distance of ˜50 Å for the CFP/YFP pair (Patterson et al., 2000), the presence of FRET in individual cells would give a strong indication of interpeptide binding in the mammalian intracellular milieu. This indication is generally characterized by a low false-positive rate (Erickson et al., 2003), so that FRET assays provide a useful complement to yeast two-hybrid assays (Allen et al., 1995). […] SCFP (the signal derived from an image obtained with the CFP filter cube) is selective for CFP fluorescence and thereby gives an optical measure of NTB-CFP expression. Analogously, the SYFP signal, derived from preferential excitation and detection of YFP, estimates I-IIB-YFP levels. Finally, the SFRET signal reflects I-IIB-YFP fluorescence stimulated by FRET transfer from NTB-CFP, as well as secondary cross-talk signals. These three signals can be incorporated within a three-cube FRET algorithm to determine the strength of FRET interaction (“FRET ratio,” FR), independently of cross-talk (Erickson et al., 2001). FR adopts a value of unity in the absence of FRET and grows linearly with increasing FRET efficiency (Erickson et al., 2003). FR values for many individual cells are plotted as circles in FIG. 2Eb, with numerous determinations clearly greater than unity. Alternatively, FR values specified by a YFP-photobleaching methodology were also elevated above unity (triangles) (Bastiaens and Jovin, 1996). […] Consistent with yeast two-hybrid assays, then, FRET assays confirmed a selective propensity for NTB and I-IIB segments to associate.
Human m2 muscarinic acetylcholine receptor (AF498916) was engineered to reduce desensitization (Pals-Rylaarsdam and Hosey, 1997). QuikChange (Stratagene, La Jolla, Calif.) introduced cluster mutations, yielding m2R: residues 286-290 (STSVS/AAAVA), residues 307-311 (TVSTS/AVAAA). For FRET assays, base templates were ECFP/EYFP-tagged calmodulin constructs in pcDNA3 (Invitrogen, Carlsbad, Calif.), as described (Erickson et al., 2001). PCR-amplified channel segments or G proteins were substituted for calmodulin via upstream EcoRI and downstream NheI sites, creating in-frame fusions with fluorophore (ECFP/EYFP C-terminal to test molecules). NTC residues, 1-53; I-IIB residues, 357-482; and I-IIC residues, 436-554.
Experiments were performed mostly as previously described (Erickson et al., 2001; Erickson et al., 2003). Briefly, the FRET Ratio (FR) is the fractional increase in YFP emission due to FRET. […] For donor-dequenching analysis, EEFF is calculated as EEFF=^1−CFPpre/CFPpost, where CFPpre and CFPpost are the CFP emissions before/after 3 min YFP photobleaching. FR is determined by FR=(EEFF/[EYFP/ECFP])+1, where EYFP/ECFP is ratio of YFP and CFP molar extinction coefficients through 440 nm excitation bandpass of FRET cube (0.0574). For binding model analysis, Kd,EFF is the effective dissociation constant, related to actual Kd via filter/microscope optical characteristics. […]
Experiments were performed as described previously for the most part (Erickson et al., 2001; Erickson et al., 2003). Specifically, for quantitative analysis, all fluorescence from single cells were isolated through a pinhole in the image plane, and detected by photo-multiplier tube. In all three-cube FRET experiments, CFP levels were below a threshold where spurious, concentration-dependent FRET became significant (Stratton et al., 2004). Similarly, for donor-dequenching experiments, YFP levels were below an analogous threshold. […]

Gβ1 = target: T4, Gβ1 (Bos taurus, UniProt P62871); assay: Yeast two-hybrid assay, channel fragments versus Gβ1; assay type: binding; details: Gβ1 in pGADT7, channel fragment in pGBKT7
T4 construct: expressed in transfected cells; host or cells: AH109 yeast
Description: as §1, §2
as §3, with “Average sum of these backgrounds was subtracted from B to produce the net interaction parameter ΔB (FIG. 2).” left out

T3 sequence (Q00975 357-482): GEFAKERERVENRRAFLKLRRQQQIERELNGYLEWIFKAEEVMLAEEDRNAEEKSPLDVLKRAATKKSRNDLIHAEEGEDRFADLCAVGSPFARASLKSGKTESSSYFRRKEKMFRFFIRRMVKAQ
T1 sequence (Q00975 whole entry, other chains not shown): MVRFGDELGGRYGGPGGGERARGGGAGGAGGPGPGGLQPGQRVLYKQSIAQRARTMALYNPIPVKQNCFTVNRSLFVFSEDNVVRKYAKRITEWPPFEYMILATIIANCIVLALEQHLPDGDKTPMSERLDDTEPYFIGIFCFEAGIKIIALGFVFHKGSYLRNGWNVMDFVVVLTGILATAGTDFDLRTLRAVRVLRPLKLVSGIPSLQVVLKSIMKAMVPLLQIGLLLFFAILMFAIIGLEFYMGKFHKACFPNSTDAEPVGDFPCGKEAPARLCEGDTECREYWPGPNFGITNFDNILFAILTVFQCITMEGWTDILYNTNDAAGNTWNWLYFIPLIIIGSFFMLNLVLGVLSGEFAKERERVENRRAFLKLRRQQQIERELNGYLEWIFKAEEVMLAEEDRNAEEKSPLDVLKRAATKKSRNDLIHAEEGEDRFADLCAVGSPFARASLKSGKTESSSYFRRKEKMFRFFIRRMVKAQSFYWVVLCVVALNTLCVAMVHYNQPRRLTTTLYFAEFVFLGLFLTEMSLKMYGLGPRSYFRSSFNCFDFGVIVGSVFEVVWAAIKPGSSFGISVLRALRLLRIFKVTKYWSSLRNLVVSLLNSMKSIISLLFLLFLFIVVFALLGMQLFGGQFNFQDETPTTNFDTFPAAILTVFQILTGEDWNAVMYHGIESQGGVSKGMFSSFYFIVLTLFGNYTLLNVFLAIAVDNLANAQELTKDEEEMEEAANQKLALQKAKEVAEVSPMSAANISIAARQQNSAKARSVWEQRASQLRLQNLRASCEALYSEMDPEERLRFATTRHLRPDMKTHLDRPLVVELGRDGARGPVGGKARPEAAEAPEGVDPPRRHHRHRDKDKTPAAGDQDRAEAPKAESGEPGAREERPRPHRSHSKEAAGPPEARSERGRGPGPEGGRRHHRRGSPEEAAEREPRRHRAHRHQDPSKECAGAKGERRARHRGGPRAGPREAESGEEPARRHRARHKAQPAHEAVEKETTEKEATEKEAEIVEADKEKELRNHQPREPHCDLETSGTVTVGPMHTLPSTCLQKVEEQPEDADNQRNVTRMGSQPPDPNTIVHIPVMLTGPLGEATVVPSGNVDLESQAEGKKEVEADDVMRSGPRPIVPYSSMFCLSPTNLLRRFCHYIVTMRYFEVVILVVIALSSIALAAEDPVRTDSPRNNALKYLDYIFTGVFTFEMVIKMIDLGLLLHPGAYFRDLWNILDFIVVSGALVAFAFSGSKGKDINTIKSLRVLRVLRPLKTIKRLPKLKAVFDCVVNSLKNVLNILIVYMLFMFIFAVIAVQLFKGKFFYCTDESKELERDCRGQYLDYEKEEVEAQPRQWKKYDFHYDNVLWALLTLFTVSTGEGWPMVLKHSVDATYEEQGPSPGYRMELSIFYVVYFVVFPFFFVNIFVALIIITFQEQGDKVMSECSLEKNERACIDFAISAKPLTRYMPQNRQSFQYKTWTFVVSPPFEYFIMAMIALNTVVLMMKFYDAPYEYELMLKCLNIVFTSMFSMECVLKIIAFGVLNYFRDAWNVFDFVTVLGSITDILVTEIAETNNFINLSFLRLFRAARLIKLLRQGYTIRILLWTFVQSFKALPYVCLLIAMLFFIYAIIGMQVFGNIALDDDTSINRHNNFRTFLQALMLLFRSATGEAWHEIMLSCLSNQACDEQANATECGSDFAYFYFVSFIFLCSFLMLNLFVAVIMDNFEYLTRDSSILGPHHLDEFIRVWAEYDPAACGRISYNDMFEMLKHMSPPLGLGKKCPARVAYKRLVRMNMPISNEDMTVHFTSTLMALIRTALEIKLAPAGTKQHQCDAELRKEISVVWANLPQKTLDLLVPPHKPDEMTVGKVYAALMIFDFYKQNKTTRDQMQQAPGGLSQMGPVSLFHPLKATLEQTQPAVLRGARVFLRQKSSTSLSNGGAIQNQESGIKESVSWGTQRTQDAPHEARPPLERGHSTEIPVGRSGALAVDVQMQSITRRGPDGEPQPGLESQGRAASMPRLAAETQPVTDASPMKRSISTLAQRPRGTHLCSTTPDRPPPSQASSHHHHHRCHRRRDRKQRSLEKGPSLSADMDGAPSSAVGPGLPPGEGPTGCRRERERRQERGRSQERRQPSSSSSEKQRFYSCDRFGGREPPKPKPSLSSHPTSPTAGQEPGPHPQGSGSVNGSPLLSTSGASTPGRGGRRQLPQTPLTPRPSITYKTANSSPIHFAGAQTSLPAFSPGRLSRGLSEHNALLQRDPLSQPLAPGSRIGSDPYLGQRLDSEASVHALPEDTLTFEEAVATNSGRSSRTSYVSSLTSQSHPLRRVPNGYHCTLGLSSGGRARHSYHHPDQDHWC
T1 sequence (P54290 25-944 partner limits assumed, other chains not shown): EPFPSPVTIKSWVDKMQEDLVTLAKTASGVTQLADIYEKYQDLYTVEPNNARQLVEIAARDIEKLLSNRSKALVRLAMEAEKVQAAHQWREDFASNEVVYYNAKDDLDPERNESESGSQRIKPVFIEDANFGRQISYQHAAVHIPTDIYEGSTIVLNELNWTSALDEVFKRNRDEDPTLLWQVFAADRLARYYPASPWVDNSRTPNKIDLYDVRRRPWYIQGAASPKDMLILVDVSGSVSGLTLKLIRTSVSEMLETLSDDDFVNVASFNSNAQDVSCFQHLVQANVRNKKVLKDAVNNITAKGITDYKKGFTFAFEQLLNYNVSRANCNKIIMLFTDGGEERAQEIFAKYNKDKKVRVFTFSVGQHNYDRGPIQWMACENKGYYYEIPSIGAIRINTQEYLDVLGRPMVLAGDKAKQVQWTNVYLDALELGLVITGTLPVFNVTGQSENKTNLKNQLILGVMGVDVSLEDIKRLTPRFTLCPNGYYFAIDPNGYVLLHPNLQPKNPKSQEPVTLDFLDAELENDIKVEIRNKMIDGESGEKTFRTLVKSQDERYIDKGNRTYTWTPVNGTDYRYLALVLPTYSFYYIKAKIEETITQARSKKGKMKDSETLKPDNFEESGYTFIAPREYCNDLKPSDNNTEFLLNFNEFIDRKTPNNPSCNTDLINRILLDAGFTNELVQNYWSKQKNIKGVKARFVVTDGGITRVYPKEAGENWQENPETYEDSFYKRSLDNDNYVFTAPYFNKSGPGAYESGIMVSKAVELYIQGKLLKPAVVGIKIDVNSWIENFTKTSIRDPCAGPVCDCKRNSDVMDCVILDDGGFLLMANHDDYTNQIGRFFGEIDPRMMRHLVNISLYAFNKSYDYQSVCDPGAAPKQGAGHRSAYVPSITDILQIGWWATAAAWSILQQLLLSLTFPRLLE
T1 sequence (P54290 945-1091 partner limits assumed, other chains not shown): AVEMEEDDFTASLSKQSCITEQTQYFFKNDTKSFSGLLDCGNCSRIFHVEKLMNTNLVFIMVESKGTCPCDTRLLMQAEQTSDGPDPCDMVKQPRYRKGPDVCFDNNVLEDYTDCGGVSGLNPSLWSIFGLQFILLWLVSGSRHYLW
T2 sequence (Q00975 357-482): as the sequence (Q00975 357-482) above
T4 sequence (P62871 whole entry, the tested form may be a part): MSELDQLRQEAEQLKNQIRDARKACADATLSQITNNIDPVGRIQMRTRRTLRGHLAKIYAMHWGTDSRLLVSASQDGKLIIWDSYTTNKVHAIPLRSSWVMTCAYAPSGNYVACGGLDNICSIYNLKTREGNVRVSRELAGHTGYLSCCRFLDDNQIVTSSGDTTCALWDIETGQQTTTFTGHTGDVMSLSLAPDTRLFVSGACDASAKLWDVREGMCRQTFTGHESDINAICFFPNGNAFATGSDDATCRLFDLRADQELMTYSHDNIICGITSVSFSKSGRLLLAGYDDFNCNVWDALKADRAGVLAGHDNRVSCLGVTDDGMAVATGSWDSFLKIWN

Molecule: NTB (45-95): NTB subdomain, residues 45-95 (SEQ ID NO.: 2) (KQSIAQRARTMALYNPIPVKQNCFTVNRSLFVFSEDNVVRKYAKRITEWP; listed as Homo sapiens)
- Effect on G/Q slope (Gmax-Qmax relation), with Gβγ [1]: depressed Gmax-Qmax relations to the same extent as did full NTB
- Interaction with I-IIB (yeast two-hybrid, ΔB) (I-II loop of α1B (I-IIB)): Robust ΔB values

Molecule: NTB (56-95)—CFP: NTB (56-95) fused to CFP (MALYNPIPVKQNCFTVNRSLFVFSEDNVVRKYAKRITEWP; also: fused to CFP)
- FRmax (I-IIB-YFP): 2.44
- Kd,EFF / affinity for I-IIB (FRET), in words (I-IIB-YFP): affinity equivalent to that of full NTB

Molecule: NTB (1-44)—CFP: NTB (1-44) fused to CFP (MVRFGDELGGRYGGPGGGERARGGGAGGAGGPGPGGLQPGQRVL; also: fused to CFP)
- Kd,EFF / affinity for I-IIB (FRET), in words (I-IIB-YFP): no detectable association

B1: NTB-CFP: NTB peptide fused to CFP (protein)
chain: MVRFGDELGGRYGGPGGGERARGGGAGGAGGPGPGGLQPGQRVLYKQSIAQRARTMALYNPIPVKQNCFTVNRSLFVFSEDNVVRKYAKRITEWP
modifications: left off: large carriers
- Effect on G/Q slope and currents, without Gβγ ([1]; peptide coexpressed with channels, absent Gβγ): no differences from control
- FRmax (I-IIB-YFP): 3.66
- Kd,EFF / affinity for I-IIB (FRET), in words (I-IIB-YFP): comparable to that for an apoCaM/IQ segment interaction

B2: NTB (Δ45-55): NTB peptide lacking residues 45-55 (protein)
chain: MVRFGDELGGRYGGPGGGERARGGGAGGAGGPGPGGLQPGQRVLMALYNPIPVKQNCFTVNRSLFVFSEDNVVRKYAKRITEWP
modifications: left off: small tags and cut ends
- Effect on G/Q slope (Gmax-Qmax relation), with Gβγ [1]: inter-mediate inhibition
- Interaction with I-IIB (yeast two-hybrid, ΔB) (I-II loop of α1B (I-IIB)): partially attenuated association

B3: NTB [1-55]: residues 1-55 of NTB (protein)
chain: MKLLSSIEQACDICRLKKLKCSKEKPKCAKCLKNNWECRYSPKTKRSPLTRAHLTEVESRLERLEQLFLLIFPREDLDMILKMDSLQDIKALLTGLFVQDNVNKDAVTDRLASVETDMPLTLRQHRISATSSSEESSNKGQRQLTVSMVRFGDELGGRYGGPGGGERARGGGAGGAGGPGPGGLQPGQRVLYKQSIAQRART
- Interaction with Gβ1 (yeast two-hybrid) (Gβ1): interacted with Gβ1
